Biological target: T1, c-kit, endogenous in FDC-P1 cells (mouse, UniProt P05532 25-979)
T1 construct: whole, on cells
Assay: co-immunoprecipitation with anti-CXCR4 from FDC-P1 whole cell lysates

T1 sequence (P05532 25-979): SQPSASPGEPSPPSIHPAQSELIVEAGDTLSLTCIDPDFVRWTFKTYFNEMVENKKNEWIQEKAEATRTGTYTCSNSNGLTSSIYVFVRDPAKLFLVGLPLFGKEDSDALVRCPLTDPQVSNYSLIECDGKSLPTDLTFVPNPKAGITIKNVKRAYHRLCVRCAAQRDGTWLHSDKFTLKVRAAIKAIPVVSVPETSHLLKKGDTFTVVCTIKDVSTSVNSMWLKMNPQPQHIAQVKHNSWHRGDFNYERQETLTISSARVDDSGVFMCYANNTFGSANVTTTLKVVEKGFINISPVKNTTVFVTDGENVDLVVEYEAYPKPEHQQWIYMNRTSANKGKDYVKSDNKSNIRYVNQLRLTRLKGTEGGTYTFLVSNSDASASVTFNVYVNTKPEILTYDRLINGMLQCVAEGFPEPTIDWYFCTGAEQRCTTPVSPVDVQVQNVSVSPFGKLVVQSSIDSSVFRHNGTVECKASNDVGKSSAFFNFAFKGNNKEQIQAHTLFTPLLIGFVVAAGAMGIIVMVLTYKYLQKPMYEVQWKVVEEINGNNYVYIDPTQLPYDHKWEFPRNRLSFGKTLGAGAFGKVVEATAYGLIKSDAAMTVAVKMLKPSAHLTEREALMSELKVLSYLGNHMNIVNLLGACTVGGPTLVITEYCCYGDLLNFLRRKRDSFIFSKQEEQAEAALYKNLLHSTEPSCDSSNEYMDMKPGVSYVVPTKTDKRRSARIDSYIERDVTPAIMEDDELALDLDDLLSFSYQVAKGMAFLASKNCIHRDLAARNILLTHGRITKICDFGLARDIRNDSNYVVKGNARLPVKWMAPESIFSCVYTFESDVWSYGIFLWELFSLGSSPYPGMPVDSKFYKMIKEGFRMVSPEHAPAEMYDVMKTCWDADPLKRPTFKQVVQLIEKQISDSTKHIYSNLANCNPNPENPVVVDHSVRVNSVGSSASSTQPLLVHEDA

B1: CXCR4, endogenous in FDC-P1 cells (receptor, mouse, UniProt P70658 1-359, looked up)
chain: MEPISVSIYTSDNYSEEVGSGDYDSNKEPCFRDENVHFNRIFLPTIYFIIFLTGIVGNGLVILVMGYQKKLRSMTDKYRLHLSVADLLFVITLPFWAVDAMADWYFGKFLCKAVHIIYTVNLYSSVLILAFISLDRYLAIVHATNSQRPRKLLAEKAVYVGVWIPALLLTIPDFIFADVSQGDISQGDDRYICDRLYPDSLWMVVFQFQHIMVGLILPGIVILSCYCIIISKLSHSKGHQKRKALKTTVILILAFFACWLPYYVGISIDSFILLGVIKQGCDFESIVHKWISITEALAFFHCCLNPILYAFLGAKFKSSAQHALNSMSRGSSLKILSKGKRGGHSSVSTESESSSFHSS
notes: whole, on cells; Immunoprecipitated with anti-CXCR4 from whole cell lysates in the co-immunoprecipitation
  binding result: no binding
